Target: Hrs (rat (endogenous in rat brain cytosol)) (UniProt Q9JJ50)
Assay: co-IP

Chain of UniProt Q9JJ50 (Q9JJ50 whole entry): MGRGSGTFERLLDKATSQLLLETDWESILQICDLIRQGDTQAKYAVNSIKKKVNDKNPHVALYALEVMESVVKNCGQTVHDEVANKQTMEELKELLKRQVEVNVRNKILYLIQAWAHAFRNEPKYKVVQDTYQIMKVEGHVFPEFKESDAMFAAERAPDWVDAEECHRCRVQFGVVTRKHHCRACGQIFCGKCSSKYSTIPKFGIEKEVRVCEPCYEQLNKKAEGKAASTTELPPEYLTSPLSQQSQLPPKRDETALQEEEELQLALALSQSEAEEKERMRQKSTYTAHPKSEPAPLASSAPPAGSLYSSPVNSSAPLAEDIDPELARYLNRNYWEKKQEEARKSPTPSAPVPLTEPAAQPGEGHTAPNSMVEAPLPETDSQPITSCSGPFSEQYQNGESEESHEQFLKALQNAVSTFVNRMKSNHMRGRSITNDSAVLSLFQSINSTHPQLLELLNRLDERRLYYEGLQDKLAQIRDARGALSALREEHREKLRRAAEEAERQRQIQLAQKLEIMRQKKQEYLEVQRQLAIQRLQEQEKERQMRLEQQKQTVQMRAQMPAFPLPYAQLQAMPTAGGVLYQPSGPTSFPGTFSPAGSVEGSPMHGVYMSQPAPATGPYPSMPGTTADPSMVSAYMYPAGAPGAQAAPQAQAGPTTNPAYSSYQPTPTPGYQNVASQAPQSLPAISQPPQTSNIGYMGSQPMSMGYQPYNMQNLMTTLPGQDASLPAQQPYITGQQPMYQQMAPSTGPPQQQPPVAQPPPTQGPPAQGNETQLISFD

percent of STAM remaining in the cytosol after immunodepletion of Hrs: 16.5%
Substance: signal-transducing adaptor molecule (STAM) (from UniProt Q5XHY7 1-523) (natural protein)

Reference: publication PMC3375900
